The conditions of this data set: Escherichia coli (strain K12); pH 7; Thermal; DSC; phosphate 50 mM; whole UniProt chain shown.

B1: Outer membrane porin C wild type, P06996 (protein)
chain: MKVKVLSLLVPALLVAGAANAAEVYNKDGNKLDLYGKVDGLHYFSDNKDVDGDQTYMRLGFKGETQVTDQLTGYGQWEYQIQGNSAENENNSWTRVAFAGLKFQDVGSFDYGRNYGVVYDVTSWTDVLPEFGGDTYGSDNFMQQRGNGFATYRNTDFFGLVDGLNFAVQYQGKNGNPSGEGFTSGVTNNGRDALRQNGDGVGGSITYDYEGFGIGGAISSSKRTDAQNTAAYIGNGDRAETYTGGLKYDANNIYLAAQYTQTYNATRVGSLGWANKAQNFEAVAQYQFDFGLRPSLAYLQSKGKNLGRGYDDEDILKYVDVGATYYFNKNMSTYVDYKINLLDDNQFTRDAGINTDNIVALGLVYQF
With B1, the Tm (as a rule, the temperature at the midpoint of the melting transition) was determined as 87 °C and the “unfolding enthalpy (calorimetric)” value was 328 kcal/mol.
